These results are taken from article doi:10.1101/2020.02.22.960815 (bioRxiv, 2020).

Positions count from the first letter of the chain named. Numbers in names are those of the source.

This series concerns the molecule itself. Nature of the series: cryo-EM structure.

B1: human potassium-chloride co-transporter 3 (KCC3), full length, wild type (natural protein, UniProt Q9UHW9-2 1-1099, looked up)
chain: MPHFTVTKVEDPEEGAAASISQEPSLADIKARIQDSDEPDLSQNSITGEHSQLLDDGHKKARNAYLNNSNYEEGDEYFDKNLALFEEEMDTRPKVSSLLNRMANYTNLTQGAKEHEEAENITEGKKKPTKTPQMGTFMGVYLPCLQNIFGVILFLRLTWVVGTAGVLQAFAIVLICCCCTMLTAISMSAIATNGVVPAGGSYFMISRALGPEFGGAVGLCFYLGTTFAAAMYILGAIEIFLVYIVPRAAIFHSDDALKESAAMLNNMRVYGTAFLVLMVLVVFIGVRYVNKFASLFLACVIVSILAIYAGAIKSSFAPPHFPVCMLGNRTLSSRHIDVCSKTKEINNMTVPSKLWGFFCNSSQFFNATCDEYFVHNNVTSIQGIPGLASGIITENLWSNYLPKGEIIEKPSAKSSDVLGSLNHEYVLVDITTSFTLLVGIFFPSVTGIMAGSNRSGDLKDAQKSIPIGTILAILTTSFVYLSNVVLFGACIEGVVLRDKFGDAVKGNLVVGTLSWPSPWVIVIGSFFSTCGAGLQSLTGAPRLLQAIAKDNIIPFLRVFGHSKANGEPTWALLLTAAIAELGILIASLDLVAPILSMFFLMCYLFVNLACALQTLLRTPNWRPRFRYYHWALSFMGMSICLALMFISSWYYAIVAMVIAGMIYKYIEYQGAEKEWGDGIRGLSLSAARFALLRLEEGPPHTKNWRPQLLVLLKLDEDLHVKHPRLLTFASQLKAGKGLTIVGSVIVGNFLENYGEALAAEQTIKHLMEAEKVKGFCQLVVAAKLREGISHLIQSCGLGGMKHNTVVMGWPNGWRQSEDARAWKTFIGTVRVTTAAHLALLVAKNISFFPSNVEQFSEGNIDVWWIVHDGGMLMLLPFLLKQHKVWRKCSIRIFTVAQLEDNSIQMKKDLATFLYHLRIEAEVEVVEMHDSDISAYTYERTLMMEQRSQMLRHMRLSKTERDREAQLVKDRNSMLRLTSIGSDEDEETETYQEKVHMTWTKDKYMASRGQKAKSMEGFQDLLNMRPDQSNVRRMHTAVKLNEVIVNKSHEAKLVLLNMPGPPRNPEGDENYMEFLEVLTEGLERVLLVRGGGSEVITIYS
modifications: phosphorylated threonine built on T940 and T997 (from the cryo-EM map and mass spectra); carbohydrate chains
Consider B1, for which the stoichiometry N (in general, the number of molecules, sites or subunits per partner or assembly) worked out at 2.

B2: KCC3 dephosphorylation mimic mutant S45A/T940V/T997V (natural protein, human, UniProt Q9UHW9-2 1-1099, looked up)
chain: B1 chain with S45A, T940V, T997V
On to B2, for which the binding result is “binds”.

B3: KCC3 phosphorylation mimic mutant S45E/T940E/T997E (natural protein, human, UniProt Q9UHW9-2 1-1099, looked up)
chain: B1 chain with S45E, T940E, T997E
Regarding B3, the binding result is listed as “binds”.

B4: human potassium-chloride co-transporter 2 (KCC2), full length (natural protein, UniProt Q9H2X9-2 1-1116, looked up)
chain: MLNNLTDCEDGDGGANPGDGNPKESSPFINSTDTEKGKEYDGKNMALFEEEMDTSPMVSSLLSGLANYTNLPQGSREHEEAENNEGGKKKPVQAPRMGTFMGVYLPCLQNIFGVILFLRLTWVVGIAGIMESFCMVFICCSCTMLTAISMSAIATNGVVPAGGSYYMISRSLGPEFGGAVGLCFYLGTTFAGAMYILGTIEILLAYLFPAMAIFKAEDASGEAAAMLNNMRVYGTCVLTCMATVVFVGVKYVNKFALVFLGCVILSILAIYAGVIKSAFDPPNFPICLLGNRTLSRHGFDVCAKLAWEGNETVTTRLWGLFCSSRFLNATCDEYFTRNNVTEIQGIPGAASGLIKENLWSSYLTKGVIVERSGMTSVGLADGTPIDMDHPYVFSDMTSYFTLLVGIYFPSVTGIMAGSNRSGDLRDAQKSIPTGTILAIATTSAVYISSVVLFGACIEGVVLRDKFGEAVNGNLVVGTLAWPSPWVIVIGSFFSTCGAGLQSLTGAPRLLQAISRDGIVPFLQVFGHGKANGEPTWALLLTACICEIGILIASLDEVAPILSMFFLMCYMFVNLACAVQTLLRTPNWRPRFRYYHWTLSFLGMSLCLALMFICSWYYALVAMLIAGLIYKYIEYRGAEKEWGDGIRGLSLSAARYALLRLEEGPPHTKNWRPQLLVLVRVDQDQNVVHPQLLSLTSQLKAGKGLTIVGSVLEGTFLENHPQAQRAEESIRRLMEAEKVKGFCQVVISSNLRDGVSHLIQSGGLGGLQHNTVLVGWPRNWRQKEDHQTWRNFIELVRETTAGHLALLVTKNVSMFPGNPERFSEGSIDVWWIVHDGGMLMLLPFLLRHHKVWRKCKMRIFTVAQMDDNSIQMKKDLTTFLYHLRITAEVEVVEMHESDISAYTYEKTLVMEQRSQILKQMHLTKNEREREIQSITDESRGSIRRKNPANTRLRLNVPEETAGDSEEKPEEEVQLIHDQSAPSCPSSSPSPGEEPEGEGETDPEKVHLTWTKDKSVAEKNKGPSPVSSEGIKDFFSMKPEWENLNQSNVRRMHTAVRLNEVIVKKSRDAKLVLLNMPGPPRNRNGDENYMEFLEVLTEHLDRVMLVRGGGREVITIYS
B4: the “stoichiometry N” value was determined as 2.
